In patent US20210380702A1:

Biological target: recombinant human PD-L1 (amino acids 19-239 of NP_054862.1) expressed with a C-terminal human IgG1 Fc tag (human)
Assay: SPR (Biacore 3000): 100 nM hPD-L1-hFc + 500 nM mAb on captured hPD-1-mFc, 25C

Chain of recombinant human PD-L1 (amino acids 19-239 of NP_054862.1) expressed with a C-terminal human IgG1 Fc tag (human) (chain, as listed by the source limits assumed): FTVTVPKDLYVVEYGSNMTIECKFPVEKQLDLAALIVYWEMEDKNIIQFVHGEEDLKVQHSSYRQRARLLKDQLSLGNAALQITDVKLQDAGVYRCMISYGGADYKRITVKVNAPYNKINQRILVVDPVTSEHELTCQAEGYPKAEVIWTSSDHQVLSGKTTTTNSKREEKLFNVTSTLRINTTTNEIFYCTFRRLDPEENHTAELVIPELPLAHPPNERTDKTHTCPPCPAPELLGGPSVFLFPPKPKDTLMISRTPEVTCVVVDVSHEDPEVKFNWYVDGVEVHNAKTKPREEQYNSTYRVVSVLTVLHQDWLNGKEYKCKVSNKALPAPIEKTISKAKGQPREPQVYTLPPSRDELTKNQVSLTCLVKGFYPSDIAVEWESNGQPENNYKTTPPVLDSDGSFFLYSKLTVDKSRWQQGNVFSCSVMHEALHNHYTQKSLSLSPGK

- % Blocking: 0%
Substance: Isotype control antibody (Table 13, Biacore assay of human Fc antibodies)
